Source: patent US20210246166A1 (Bayer, published 2021)
Bridge positions count the residues as written; N and C are the ends. Square brackets hold non-standard residues; d marks the D form. Ends that are not written are not given here. Oic = O=C(O)[C@@H]1C[C@@H]2CCCC[C@@H]2N1; tBuAla = CC(C)(C)C[C@H](N)C(=O)O; 2Pal = N[C@@H](Cc1ccccn1)C(=O)O; PEG4 = NCCOCCOCCOCCOCCC(=O)O; Pen = CC(C)(S)[C@H](N)C(=O)O; Tranexamic = tranexamic acid; NMeC = CN[C@@H](CS)C(=O)O; NMeA = CN[C@@H](C)C(=O)O; Orn = NCCC[C@H](N)C(=O)O; Sar = CNCC(=O)O

T1: Recombinant human MASP1 enzyme (fragment corresponding to amino acids 297-699, C-terminal His Tag) (human, UniProt P48740 297-699)
T1 sequence: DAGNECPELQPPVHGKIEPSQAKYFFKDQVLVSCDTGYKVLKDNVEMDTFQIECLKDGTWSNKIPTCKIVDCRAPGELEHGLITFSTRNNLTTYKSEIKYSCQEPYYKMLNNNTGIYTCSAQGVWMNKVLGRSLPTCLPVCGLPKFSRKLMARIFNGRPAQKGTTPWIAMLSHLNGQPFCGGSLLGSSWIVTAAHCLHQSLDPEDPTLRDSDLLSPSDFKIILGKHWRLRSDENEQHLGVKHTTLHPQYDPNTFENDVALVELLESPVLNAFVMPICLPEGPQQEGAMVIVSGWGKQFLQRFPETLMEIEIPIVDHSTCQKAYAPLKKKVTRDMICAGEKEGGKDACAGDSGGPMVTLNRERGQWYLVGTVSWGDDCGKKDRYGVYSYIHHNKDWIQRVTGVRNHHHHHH

B1: AIC+SRS-((tBu)A)-PP-((2S)-2-(Amino)-2-[(1S,3S)-3-hydroxycyclohexyl]acetic acid)-((N-Me)C)+IPD-NH2 (peptide)
peptide: AICSRS[tBuAla]PP[(2S)‑2‑(Amino)‑2‑((1S,3S)-3-hydroxycyclohexyl)acetic acid][NMeC]IPD-NH2
modifications: disulfide 3-11
B2: FIC+SRS-((tBu)A)-PPI-((N-Me)C)+I-NH2 (peptide)
peptide: FICSRS[tBuAla]PPI[NMeC]I-NH2
modifications: disulfide 3-11; N-terminus assumed
SMILES: CC[C@H](C)[C@H](NC(=O)[C@@H]1CSSC[C@H](NC(=O)[C@@H](NC(=O)[C@@H](N)Cc2ccccc2)[C@@H](C)CC)C(=O)N[C@@H](CO)C(=O)N[C@@H](CCCNC(=N)N)C(=O)N[C@@H](CO)C(=O)N[C@@H](CC(C)(C)C)C(=O)N2CCC[C@H]2C(=O)N2CCC[C@H]2C(=O)N[C@@H]([C@@H](C)CC)C(=O)N1C)C(N)=O
B3: AIC+SRSLPPI-(Pen)+IPD-NH2 (peptide)
peptide: AICSRSLPPI[Pen]IPD-NH2
modifications: disulfide 3-11; N-terminus assumed
SMILES: CC[C@H](C)[C@H](NC(=O)[C@H](C)N)C(=O)N[C@H]1CSSC(C)(C)[C@@H](C(=O)N[C@H](C(=O)N2CCC[C@H]2C(=O)N[C@@H](CC(=O)O)C(N)=O)[C@@H](C)CC)NC(=O)[C@H]([C@@H](C)CC)NC(=O)[C@@H]2CCCN2C(=O)[C@@H]2CCCN2C(=O)[C@H](CC(C)C)NC(=O)[C@H](CO)NC(=O)[C@H](CCCNC(=N)N)NC(=O)[C@H](CO)NC1=O
B4: ((N-Me)G)-IC+SRS-((tBu)A)-PPI-(Pen)+IP-(PEG3(16atoms))-NH2 (peptide)
peptide: [Sar]ICSRS[tBuAla]PPI[Pen]IP[PEG4]-NH2
modifications: disulfide 3-11; N-terminus assumed
SMILES: CC[C@H](C)[C@H](NC(=O)CNC)C(=O)N[C@H]1CSSC(C)(C)[C@@H](C(=O)N[C@H](C(=O)N2CCC[C@H]2C(=O)NCCOCCOCCOCCOCCC(N)=O)[C@@H](C)CC)NC(=O)[C@H]([C@@H](C)CC)NC(=O)[C@@H]2CCCN2C(=O)[C@@H]2CCCN2C(=O)[C@H](CC(C)(C)C)NC(=O)[C@H](CO)NC(=O)[C@H](CCCNC(=N)N)NC(=O)[C@H](CO)NC1=O
B5: AIC+SRSLP-(Oic)-I-((N-Me)C)+IPD-NH2 (peptide)
peptide: AICSRSLP[Oic]I[NMeC]IPD-NH2
modifications: disulfide 3-11; N-terminus assumed
SMILES: CC[C@H](C)[C@H](NC(=O)[C@H](C)N)C(=O)N[C@H]1CSSC[C@@H](C(=O)N[C@H](C(=O)N2CCC[C@H]2C(=O)N[C@@H](CC(=O)O)C(N)=O)[C@@H](C)CC)N(C)C(=O)[C@H]([C@@H](C)CC)NC(=O)[C@@H]2C[C@@H]3CCCC[C@@H]3N2C(=O)[C@@H]2CCCN2C(=O)[C@H](CC(C)C)NC(=O)[C@H](CO)NC(=O)[C@H](CCCNC(=N)N)NC(=O)[C@H](CO)NC1=O
B6: ((2S)-2[(Amino)-2-(tetrahydro-2H-pyran-4-yl)]acetic acid)-IC+SRSLP-(Oic)-IC+I-OH (peptide)
peptide: [(2S)‑2((Amino)-2-(tetrahydro-2H-pyran-4-yl))acetic acid]ICSRSLP[Oic]ICI-OH
modifications: disulfide 3-11
B7: AIC+SRS-((tBu)A)-PPI-(Pen)+IP-(Tranexamic)-NH2 (peptide)
peptide: AICSRS[tBuAla]PPI[Pen]IP[Tranexamic]-NH2
modifications: disulfide 3-11
B8: YIC+SRS-((tBu)A)-PPI-((N-Me)C)+I-NH2 (peptide)
peptide: YICSRS[tBuAla]PPI[NMeC]I-NH2
modifications: disulfide 3-11; N-terminus assumed
SMILES: CC[C@H](C)[C@H](NC(=O)[C@@H]1CSSC[C@H](NC(=O)[C@@H](NC(=O)[C@@H](N)Cc2ccc(O)cc2)[C@@H](C)CC)C(=O)N[C@@H](CO)C(=O)N[C@@H](CCCNC(=N)N)C(=O)N[C@@H](CO)C(=O)N[C@@H](CC(C)(C)C)C(=O)N2CCC[C@H]2C(=O)N2CCC[C@H]2C(=O)N[C@@H]([C@@H](C)CC)C(=O)N1C)C(N)=O
B9: ((N-Me)A)-IC+SRSLP-(Oic)-I-(Pen)+IPQ-OH (peptide)
peptide: [NMeA]ICSRSLP[Oic]I[Pen]IPQ-OH
modifications: disulfide 3-11; N-terminus assumed
SMILES: CC[C@H](C)[C@H](NC(=O)[C@H](C)NC)C(=O)N[C@H]1CSSC(C)(C)[C@@H](C(=O)N[C@H](C(=O)N2CCC[C@H]2C(=O)N[C@@H](CCC(N)=O)C(=O)O)[C@@H](C)CC)NC(=O)[C@H]([C@@H](C)CC)NC(=O)[C@@H]2C[C@@H]3CCCC[C@@H]3N2C(=O)[C@@H]2CCCN2C(=O)[C@H](CC(C)C)NC(=O)[C@H](CO)NC(=O)[C@H](CCCNC(=N)N)NC(=O)[C@H](CO)NC1=O
B10: AIC+SRS-((tBu)A)-P-(Oic)-I-((N-Me)C)+I-OH (peptide)
peptide: AICSRS[tBuAla]P[Oic]I[NMeC]I-OH
modifications: disulfide 3-11; N-terminus assumed
SMILES: CC[C@H](C)[C@H](NC(=O)[C@@H]1CSSC[C@H](NC(=O)[C@@H](NC(=O)[C@H](C)N)[C@@H](C)CC)C(=O)N[C@@H](CO)C(=O)N[C@@H](CCCNC(=N)N)C(=O)N[C@@H](CO)C(=O)N[C@@H](CC(C)(C)C)C(=O)N2CCC[C@H]2C(=O)N2[C@@H](C[C@@H]3CCCC[C@@H]32)C(=O)N[C@@H]([C@@H](C)CC)C(=O)N1C)C(=O)O
B11: aIC+SRSLP-(Oic)-I-(Pen)+IP-NH2 (peptide)
peptide: [dA]ICSRSLP[Oic]I[Pen]IP-NH2
modifications: disulfide 3-11; N-terminus assumed
SMILES: CC[C@H](C)[C@H](NC(=O)[C@@H](C)N)C(=O)N[C@H]1CSSC(C)(C)[C@@H](C(=O)N[C@H](C(=O)N2CCC[C@H]2C(N)=O)[C@@H](C)CC)NC(=O)[C@H]([C@@H](C)CC)NC(=O)[C@@H]2C[C@@H]3CCCC[C@@H]3N2C(=O)[C@@H]2CCCN2C(=O)[C@H](CC(C)C)NC(=O)[C@H](CO)NC(=O)[C@H](CCCNC(=N)N)NC(=O)[C@H](CO)NC1=O
B12: (Orn)-IC+SRS-((tBu)A)-PPIC+I-NH2 (peptide)
peptide: [Orn]ICSRS[tBuAla]PPICI-NH2
modifications: disulfide 3-11; N-terminus assumed
SMILES: CC[C@H](C)[C@H](NC(=O)[C@@H]1CSSC[C@H](NC(=O)[C@@H](NC(=O)[C@@H](N)CCCN)[C@@H](C)CC)C(=O)N[C@@H](CO)C(=O)N[C@@H](CCCNC(=N)N)C(=O)N[C@@H](CO)C(=O)N[C@@H](CC(C)(C)C)C(=O)N2CCC[C@H]2C(=O)N2CCC[C@H]2C(=O)N[C@@H]([C@@H](C)CC)C(=O)N1)C(N)=O
B13: ((N-Me)G)-IC+SRSLP-(Oic)-I-(Pen)+I-OH (peptide)
peptide: [Sar]ICSRSLP[Oic]I[Pen]I-OH
modifications: disulfide 3-11; N-terminus assumed
SMILES: CC[C@H](C)[C@H](NC(=O)[C@H]1NC(=O)[C@H]([C@@H](C)CC)NC(=O)[C@@H]2C[C@@H]3CCCC[C@@H]3N2C(=O)[C@@H]2CCCN2C(=O)[C@H](CC(C)C)NC(=O)[C@H](CO)NC(=O)[C@H](CCCNC(=N)N)NC(=O)[C@H](CO)NC(=O)[C@@H](NC(=O)[C@@H](NC(=O)CNC)[C@@H](C)CC)CSSC1(C)C)C(=O)O
B14: (2-Pal)-IC+SRS-((tBu)A)-PPI-(Pen)+IPD-NH2 (peptide)
peptide: [2Pal]ICSRS[tBuAla]PPI[Pen]IPD-NH2
modifications: disulfide 3-11; N-terminus assumed
SMILES: CC[C@H](C)[C@H](NC(=O)[C@@H](N)Cc1ccccn1)C(=O)N[C@H]1CSSC(C)(C)[C@@H](C(=O)N[C@H](C(=O)N2CCC[C@H]2C(=O)N[C@@H](CC(=O)O)C(N)=O)[C@@H](C)CC)NC(=O)[C@H]([C@@H](C)CC)NC(=O)[C@@H]2CCCN2C(=O)[C@@H]2CCCN2C(=O)[C@H](CC(C)(C)C)NC(=O)[C@H](CO)NC(=O)[C@H](CCCNC(=N)N)NC(=O)[C@H](CO)NC1=O
B15: AIC+SRS-((tBu)A)-P-((2S,3aS,6aS)-Octahydrocyclopenta[b]pyrrole-2-carboxylic acid)-I-((N-Me)C)+IPD-NH2 (peptide)
peptide: AICSRS[tBuAla]P[(2S,3aS,6aS)‑Octahydrocyclopenta(b)pyrrole‑2‑carboxylic acid]I[NMeC]IPD-NH2
modifications: disulfide 3-11
B16: ((N-Me)G)-IC+SRSLP-(Oic)-I-(Pen)+IPE-NH2 (peptide)
peptide: [Sar]ICSRSLP[Oic]I[Pen]IPE-NH2
modifications: disulfide 3-11; N-terminus assumed
SMILES: CC[C@H](C)[C@H](NC(=O)CNC)C(=O)N[C@H]1CSSC(C)(C)[C@@H](C(=O)N[C@H](C(=O)N2CCC[C@H]2C(=O)N[C@@H](CCC(=O)O)C(N)=O)[C@@H](C)CC)NC(=O)[C@H]([C@@H](C)CC)NC(=O)[C@@H]2C[C@@H]3CCCC[C@@H]3N2C(=O)[C@@H]2CCCN2C(=O)[C@H](CC(C)C)NC(=O)[C@H](CO)NC(=O)[C@H](CCCNC(=N)N)NC(=O)[C@H](CO)NC1=O

Target: Recombinant human MASP2 enzyme (fragment corresponding to amino acids 297-686, C-terminal His Tag) (human, UniProt O00187 297-686)
Sequence (O00187 other isoform, or with tags, fused parts or gaps limits assumed): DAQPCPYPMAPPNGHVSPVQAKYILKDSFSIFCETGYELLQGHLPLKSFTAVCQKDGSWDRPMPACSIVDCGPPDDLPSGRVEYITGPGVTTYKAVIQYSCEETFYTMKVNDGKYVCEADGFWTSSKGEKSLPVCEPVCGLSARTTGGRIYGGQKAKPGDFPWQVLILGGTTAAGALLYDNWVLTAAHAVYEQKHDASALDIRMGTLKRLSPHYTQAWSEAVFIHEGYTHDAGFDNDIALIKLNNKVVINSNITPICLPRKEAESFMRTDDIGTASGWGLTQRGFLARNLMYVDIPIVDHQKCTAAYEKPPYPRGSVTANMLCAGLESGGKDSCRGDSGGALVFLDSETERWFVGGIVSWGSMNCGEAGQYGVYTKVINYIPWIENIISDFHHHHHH
Experiment: cell-based or functional assay

human MASP2 IC50 | Binder
1100 nM | B1
170 nM | B2
68 nM | B3
65.5 nM | B4
245 nM | B5
200 nM | B6
30 nM | B7
68 nM | B8
170 nM | B9
850 nM | B10
59 nM | B11
170 nM | B12
550 nM | B13
68 nM | B14
240 nM | B15
200 nM | B16

Target: T1, Recombinant human MASP1 enzyme …
Experiment: cell-based or functional assay

human MASP1 IC50 | Binder
4.7 nM | B1
4.5 nM | B2
4.3 nM | B3
4.35 nM | B4
4.8 nM | B5
4.7 nM | B6
4.3 nM | B7
4.5 nM | B8
4.4 nM | B9
4.4 nM | B10
4.3 nM | B11
4.8 nM | B12
4.9 nM | B13
4.4 nM | B14
4.4 nM | B15
4.3 nM | B16
